Assay results taken from paper PMC11267847.

Experiments:
Assay in all cases: EMSA
Settings in all cases: EMSA kit (Biyuntian): 50 ng biotin-labeled DNA, 2 uL binding buffer, 2 ug protein; competitors 5 ug unlabeled DNA; buffer composition, pH and temperature not …
[1] = molecular target: T1, Gsm1p (Pichia pastoris (Komagataella phaffii), strain SMD1168?) (UniProt C4R1K8)
T1 sequence: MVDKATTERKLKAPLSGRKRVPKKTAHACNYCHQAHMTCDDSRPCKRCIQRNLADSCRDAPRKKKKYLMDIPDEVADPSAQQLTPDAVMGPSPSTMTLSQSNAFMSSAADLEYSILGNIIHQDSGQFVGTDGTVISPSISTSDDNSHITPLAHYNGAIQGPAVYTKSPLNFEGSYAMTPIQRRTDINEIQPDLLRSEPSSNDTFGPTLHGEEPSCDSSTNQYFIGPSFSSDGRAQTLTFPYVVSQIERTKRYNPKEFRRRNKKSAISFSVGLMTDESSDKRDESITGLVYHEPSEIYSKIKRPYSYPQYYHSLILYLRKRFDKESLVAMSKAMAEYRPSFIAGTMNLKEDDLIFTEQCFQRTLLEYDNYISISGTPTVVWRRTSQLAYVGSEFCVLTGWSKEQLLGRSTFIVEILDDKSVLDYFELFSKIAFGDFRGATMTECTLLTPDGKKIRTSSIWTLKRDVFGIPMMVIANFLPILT

[2] = molecular target: T2, Hot1p (Pichia pastoris (Komagataella phaffii), strain SMD1168?) (UniProt C4QW90)
T2 sequence: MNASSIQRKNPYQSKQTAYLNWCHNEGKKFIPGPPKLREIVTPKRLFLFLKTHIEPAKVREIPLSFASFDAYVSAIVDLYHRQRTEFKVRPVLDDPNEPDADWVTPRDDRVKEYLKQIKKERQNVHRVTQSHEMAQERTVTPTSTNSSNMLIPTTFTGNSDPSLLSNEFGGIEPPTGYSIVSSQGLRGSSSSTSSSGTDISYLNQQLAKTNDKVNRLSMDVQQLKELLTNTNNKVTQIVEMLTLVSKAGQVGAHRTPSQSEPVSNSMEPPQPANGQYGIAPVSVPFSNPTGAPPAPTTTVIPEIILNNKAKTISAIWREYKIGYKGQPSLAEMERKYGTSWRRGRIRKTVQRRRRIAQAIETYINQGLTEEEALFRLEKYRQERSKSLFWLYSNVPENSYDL

[3] = molecular target: T3, Loc1p (Pichia pastoris (Komagataella phaffii), cloned from P. pastoris genome, strain SMD1168?) (UniProt C4QX18)
T3 sequence: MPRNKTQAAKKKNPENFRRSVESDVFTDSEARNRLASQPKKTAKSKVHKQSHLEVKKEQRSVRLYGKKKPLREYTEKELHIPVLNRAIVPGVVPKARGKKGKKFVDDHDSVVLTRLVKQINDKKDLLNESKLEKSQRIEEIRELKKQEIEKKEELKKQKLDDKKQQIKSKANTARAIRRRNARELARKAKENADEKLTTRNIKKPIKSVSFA

Sequence	binding [1]	binding [2]	binding [3]
AGATCTTTTTTGTAGAAATGTCTTGGTGTCCTCGTCCAATCAGGTAGCCATCTCTGAAATATCTGGCTCCGTTGCAACTCCGAACGACCTGCTGGCAACGTAAAATTCTCCGGGGTAAAACTTAAATGTGGAGTAATGGAACCAGAAACGTCTCTTCCCTTCTCTCTCCTTCCACCGCCCGTTACCGTCCCTAGGAAATTTTAC (double strand) [pGAP-AB]	binds	binds	binds
AGCAGCCCAGGGATGGAAAAGTCCCGGCCGTCGCTGGCAATAATAGCGGGCGGACGCATGTCATGAGATTATTGGAAACCACCAGAATCGAATATAAAAGGCGAACACCTTTCCCAATTTTGGTTTCTCCTGACCCAAAGACTTTAAATTTAATTTATTTGTCCCTATTTCAATCAATTGAACAACTATTTCGAAACG (double strand) [pGAP-CD]	binds	binds	no binding
CATGCGTCCGCCCGCTATTATTGCCAGCGACGGCCGGGACTTTTCCATCCCTGGGCTGCTAGGTCGGGTACACGACCTCCGTTTTACCCGCAACGTAATGCTGGGAAGAGCATTGCTGCAAGGGGGCCGTAGAAGAAGCTCTCCAGCAGAGTAAAATTTCCTAGGGACGGTAACGGGCGGTGGAAGGAGAGAGAAGGGAAGAGA (double strand) [pGAP-BC]	binds	binds	binds
